Laboratory results published in patent US20170266311A1 (published 2017).

T1: human NaPi2b (sodium-dependent phosphate transport protein 2B, SLC34A2) (human, UniProt O95436 1-690)
T1 construct: also called NaPiIIb; Npt2
T1 sequence: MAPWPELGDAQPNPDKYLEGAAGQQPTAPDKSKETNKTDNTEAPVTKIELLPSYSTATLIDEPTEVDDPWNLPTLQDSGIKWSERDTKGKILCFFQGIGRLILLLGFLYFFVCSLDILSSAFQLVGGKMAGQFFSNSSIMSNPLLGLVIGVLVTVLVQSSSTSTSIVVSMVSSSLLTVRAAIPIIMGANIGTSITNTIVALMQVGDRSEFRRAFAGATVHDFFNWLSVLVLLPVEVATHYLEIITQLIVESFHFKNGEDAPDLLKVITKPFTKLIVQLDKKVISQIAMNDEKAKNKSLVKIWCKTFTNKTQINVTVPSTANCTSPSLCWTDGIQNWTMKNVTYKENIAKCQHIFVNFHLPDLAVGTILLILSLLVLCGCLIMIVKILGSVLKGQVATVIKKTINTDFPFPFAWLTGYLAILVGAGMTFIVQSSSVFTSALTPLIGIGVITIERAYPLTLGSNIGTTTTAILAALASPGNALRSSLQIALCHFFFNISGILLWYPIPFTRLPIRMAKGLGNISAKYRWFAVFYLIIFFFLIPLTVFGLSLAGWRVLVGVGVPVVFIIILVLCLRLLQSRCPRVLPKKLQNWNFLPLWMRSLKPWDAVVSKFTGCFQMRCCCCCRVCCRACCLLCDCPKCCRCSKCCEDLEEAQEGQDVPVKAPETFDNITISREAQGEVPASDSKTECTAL


Columns and labels:
[1] = molecular target: T1, human NaPi2b (sodium-dependent …); assay: flow cytometry on OVCAR3 cells, Alexa Fluor 647 goat anti-human IgG detection, one site specific binding fit
Procedure: (§1) TOV-21G or OVCAR3 cells were grown overnight to approximately 90% confluent cultures in media, then were released from the plate surface by treatment with Trypsin-EDTA (Gibco-Thermo Fisher Scientific, USA). The detached cells were washed once with ice cold media containing 6% goat serum and resuspended in the same media. 50,000 cells were aliquoted per well of a V-bottom, 96-well plate and incubated with a range of test articles concentrations (0.23-500 nM) in 100 μl Media (1:1 mixture MCDB105 (1.5 g/L sodium bicarbonate) and Medium 199 (2.2 g/L sodium bicarbonate plus 15% FBS)) with 6% goat serum on ice for 3 hours. The cells were then washed once with ice cold PBS and resuspended in 150 μl Media with 2% goat serum and 6 μg/ml of a secondary fluorescently labeled antibody, Alexa Fluor® 647-labelled goat anti-human IgG (Life Technologies, Cat# A-21445) for 1 hour on ice. The cells were washed once with ice cold PBS and suspended in 150 μl of ice cold PBS with 1% paraformaldehyde. The amount of fluorescence bound per cell was determined by running 5000 cells for each treatment on a MACSQuant flow cytometer (Miltenyi Biotec, Bergisch Gladbach, Germany). The median fluorescence value for each treatment was graphed, and the binding constant, KD was calculated for each test article with GraphPad Prism software by non-linear regression using the one site specific binding model.

[2] = molecular target: T1, human NaPi2b (sodium-dependent …); assay: flow cytometry on TOV-21G cells, Alexa Fluor 647 goat anti-human IgG detection, one site specific binding fit
Procedure: as §1

Binder | Kd [1] [nM] | Kd [2] [nM]
XMT 1535 antibody (antibody, human IgG1, kappa, V domains shown, Full IgG1) VH: QVQLVQSGAEVVKPGASVKMSCKASGYTFTGYNIHWVKQAPGQGLEWIGAIYPGNGDTSYKQKFRGRATLTADTSTSTVYMELSSLRSEDSAVYYCARGETARATFAYWGQGTLVTVSS VL: DIQMTQSPSSLSASVGDRVTITCSASQDIGNFLNWYQQKPGKTVKVLIYYTSSLYSGVPSRFSGSGSGTDYTLTISSLQPEDFATYYCQQYSKLPLTFGQGTKLELKR | 6.59 | 2.46
Example 1C, XMT 1535-(EG2-MI-(10 kDa PHF-BA-(AF-HPA-Ala))) (antibody, human IgG1, kappa, V domains shown, EG2-MI-(10 kDa PHF-BA-(AF-HPA-Ala)) polymer-drug scaffolds attached by maleimide to cysteines of the partially reduced antibody; positions and chain not stated; DAR about 11:1 to about 15:1) VH: QVQLVQSGAEVVKPGASVKMSCKASGYTFTGYNIHWVKQAPGQGLEWIGAIYPGNGDTSYKQKFRGRATLTADTSTSTVYMELSSLRSEDSAVYYCARGETARATFAYWGQGTLVTVSS VL: DIQMTQSPSSLSASVGDRVTITCSASQDIGNFLNWYQQKPGKTVKVLIYYTSSLYSGVPSRFSGSGSGTDYTLTISSLQPEDFATYYCQQYSKLPLTFGQGTKLELKR | 3.84 | 3.97
